# Assay results: patent US9284543B2, “Neutral active soluble truncated PH20 polypeptides and uses thereof” (Halozyme, Inc., priority 2008, dated 2016)
# B1: SPAM1-GVCI: C-terminally truncated human PH20, precursor 465 aa (SEQ ID NO:35), mature 430 aa (SEQ ID NO:87) (protein, listed as Homo sapiens)
# chain 1: MGVLKFKHIFFRSFVKSSGVSQIVFTFLLIPCCLTLNFRAPPVIPNVPFLWAWNAPSEFCLGKFDEPLDMSLFSFIGSPRINATGQGVTIFYVDRLGYYPYIDSITGVTVNGGIPQKISLQDHLDKAKKDITFYMPVDNLGMAVIDWEEWRPTWARNWKPKDVYKNRSIELVQQQNVQLSLTEATEKAKQEFEKAGKDFLVETIKLGKLLRPNHLWGYYLFPDCYNHHYKKPGYNGSCFNVEIKRNDDLSWLWNESTALYPSIYLNTQQSPVAATLYVRNRVREAIRVSKIPDAKSPLPVFAYTRIVFTDQVLKFLSQDELVYTFGETVALGASGIVIWGTLSIMRSMKSCLLLDNYMETILNPYIINVTLAAKMCSQVLCQEQGVCIRKNWNSSDYLHLNPDNFAIQLEKGGKFTVRGKPTLEDLEQFSEKFYCSCYSTLSCKEKADVKDTDAVDVCIADGVCI
# chain 2: LNFRAPPVIPNVPFLWAWNAPSEFCLGKFDEPLDMSLFSFIGSPRINATGQGVTIFYVDRLGYYPYIDSITGVTVNGGIPQKISLQDHLDKAKKDITFYMPVDNLGMAVIDWEEWRPTWARNWKPKDVYKNRSIELVQQQNVQLSLTEATEKAKQEFEKAGKDFLVETIKLGKLLRPNHLWGYYLFPDCYNHHYKKPGYNGSCFNVEIKRNDDLSWLWNESTALYPSIYLNTQQSPVAATLYVRNRVREAIRVSKIPDAKSPLPVFAYTRIVFTDQVLKFLSQDELVYTFGETVALGASGIVIWGTLSIMRSMKSCLLLDNYMETILNPYIINVTLAAKMCSQVLCQEQGVCIRKNWNSSDYLHLNPDNFAIQLEKGGKFTVRGKPTLEDLEQFSEKFYCSCYSTLSCKEKADVKDTDAVDVCIADGVCI
# modifications: HuPH20 precursor 1-465; Mature HuPH20 36-465
# B2: SPAM1-VCIA: C-terminally truncated human PH20, precursor 460 aa (SEQ ID NO:38), mature 425 aa (SEQ ID NO:90) (protein, listed as Homo sapiens)
# chain 1: MGVLKFKHIFFRSFVKSSGVSQIVFTFLLIPCCLTLNFRAPPVIPNVPFLWAWNAPSEFCLGKFDEPLDMSLFSFIGSPRINATGQGVTIFYVDRLGYYPYIDSITGVTVNGGIPQKISLQDHLDKAKKDITFYMPVDNLGMAVIDWEEWRPTWARNWKPKDVYKNRSIELVQQQNVQLSLTEATEKAKQEFEKAGKDFLVETIKLGKLLRPNHLWGYYLFPDCYNHHYKKPGYNGSCFNVEIKRNDDLSWLWNESTALYPSIYLNTQQSPVAATLYVRNRVREAIRVSKIPDAKSPLPVFAYTRIVFTDQVLKFLSQDELVYTFGETVALGASGIVIWGTLSIMRSMKSCLLLDNYMETILNPYIINVTLAAKMCSQVLCQEQGVCIRKNWNSSDYLHLNPDNFAIQLEKGGKFTVRGKPTLEDLEQFSEKFYCSCYSTLSCKEKADVKDTDAVDVCIA
# chain 2: LNFRAPPVIPNVPFLWAWNAPSEFCLGKFDEPLDMSLFSFIGSPRINATGQGVTIFYVDRLGYYPYIDSITGVTVNGGIPQKISLQDHLDKAKKDITFYMPVDNLGMAVIDWEEWRPTWARNWKPKDVYKNRSIELVQQQNVQLSLTEATEKAKQEFEKAGKDFLVETIKLGKLLRPNHLWGYYLFPDCYNHHYKKPGYNGSCFNVEIKRNDDLSWLWNESTALYPSIYLNTQQSPVAATLYVRNRVREAIRVSKIPDAKSPLPVFAYTRIVFTDQVLKFLSQDELVYTFGETVALGASGIVIWGTLSIMRSMKSCLLLDNYMETILNPYIINVTLAAKMCSQVLCQEQGVCIRKNWNSSDYLHLNPDNFAIQLEKGGKFTVRGKPTLEDLEQFSEKFYCSCYSTLSCKEKADVKDTDAVDVCIA
# modifications: HuPH20 precursor 1-460; Mature HuPH20 36-460
# B3: SPAM1-DGVC: C-terminally truncated human PH20, precursor 464 aa (SEQ ID NO:36), mature 429 aa (SEQ ID NO:88) (protein, listed as Homo sapiens)
# chain 1: MGVLKFKHIFFRSFVKSSGVSQIVFTFLLIPCCLTLNFRAPPVIPNVPFLWAWNAPSEFCLGKFDEPLDMSLFSFIGSPRINATGQGVTIFYVDRLGYYPYIDSITGVTVNGGIPQKISLQDHLDKAKKDITFYMPVDNLGMAVIDWEEWRPTWARNWKPKDVYKNRSIELVQQQNVQLSLTEATEKAKQEFEKAGKDFLVETIKLGKLLRPNHLWGYYLFPDCYNHHYKKPGYNGSCFNVEIKRNDDLSWLWNESTALYPSIYLNTQQSPVAATLYVRNRVREAIRVSKIPDAKSPLPVFAYTRIVFTDQVLKFLSQDELVYTFGETVALGASGIVIWGTLSIMRSMKSCLLLDNYMETILNPYIINVTLAAKMCSQVLCQEQGVCIRKNWNSSDYLHLNPDNFAIQLEKGGKFTVRGKPTLEDLEQFSEKFYCSCYSTLSCKEKADVKDTDAVDVCIADGVC
# chain 2: LNFRAPPVIPNVPFLWAWNAPSEFCLGKFDEPLDMSLFSFIGSPRINATGQGVTIFYVDRLGYYPYIDSITGVTVNGGIPQKISLQDHLDKAKKDITFYMPVDNLGMAVIDWEEWRPTWARNWKPKDVYKNRSIELVQQQNVQLSLTEATEKAKQEFEKAGKDFLVETIKLGKLLRPNHLWGYYLFPDCYNHHYKKPGYNGSCFNVEIKRNDDLSWLWNESTALYPSIYLNTQQSPVAATLYVRNRVREAIRVSKIPDAKSPLPVFAYTRIVFTDQVLKFLSQDELVYTFGETVALGASGIVIWGTLSIMRSMKSCLLLDNYMETILNPYIINVTLAAKMCSQVLCQEQGVCIRKNWNSSDYLHLNPDNFAIQLEKGGKFTVRGKPTLEDLEQFSEKFYCSCYSTLSCKEKADVKDTDAVDVCIADGVC
# modifications: HuPH20 precursor 1-464; Mature HuPH20 36-464
# B4: SPAM1-IADG: C-terminally truncated human PH20, precursor 462 aa (SEQ ID NO:37), mature 427 aa (SEQ ID NO:89) (protein, listed as Homo sapiens)
# chain 1: MGVLKFKHIFFRSFVKSSGVSQIVFTFLLIPCCLTLNFRAPPVIPNVPFLWAWNAPSEFCLGKFDEPLDMSLFSFIGSPRINATGQGVTIFYVDRLGYYPYIDSITGVTVNGGIPQKISLQDHLDKAKKDITFYMPVDNLGMAVIDWEEWRPTWARNWKPKDVYKNRSIELVQQQNVQLSLTEATEKAKQEFEKAGKDFLVETIKLGKLLRPNHLWGYYLFPDCYNHHYKKPGYNGSCFNVEIKRNDDLSWLWNESTALYPSIYLNTQQSPVAATLYVRNRVREAIRVSKIPDAKSPLPVFAYTRIVFTDQVLKFLSQDELVYTFGETVALGASGIVIWGTLSIMRSMKSCLLLDNYMETILNPYIINVTLAAKMCSQVLCQEQGVCIRKNWNSSDYLHLNPDNFAIQLEKGGKFTVRGKPTLEDLEQFSEKFYCSCYSTLSCKEKADVKDTDAVDVCIADG
# chain 2: LNFRAPPVIPNVPFLWAWNAPSEFCLGKFDEPLDMSLFSFIGSPRINATGQGVTIFYVDRLGYYPYIDSITGVTVNGGIPQKISLQDHLDKAKKDITFYMPVDNLGMAVIDWEEWRPTWARNWKPKDVYKNRSIELVQQQNVQLSLTEATEKAKQEFEKAGKDFLVETIKLGKLLRPNHLWGYYLFPDCYNHHYKKPGYNGSCFNVEIKRNDDLSWLWNESTALYPSIYLNTQQSPVAATLYVRNRVREAIRVSKIPDAKSPLPVFAYTRIVFTDQVLKFLSQDELVYTFGETVALGASGIVIWGTLSIMRSMKSCLLLDNYMETILNPYIINVTLAAKMCSQVLCQEQGVCIRKNWNSSDYLHLNPDNFAIQLEKGGKFTVRGKPTLEDLEQFSEKFYCSCYSTLSCKEKADVKDTDAVDVCIADG
# modifications: HuPH20 precursor 1-462; Mature HuPH20 36-462
# Test system: CHO-S cells
# Test: Western blot analysis of PH20 expression in media and cells after transient expression
# Assay type: cell-based, Chinese Hamster
# Settings: media versus cells
# Protocol: The mutant PH20-HZ24 plasmids generated in Example 1 were transiently […] into CHO—S cells (derived from Chinese Hamster Ovary CHO K1 cells) using GeneJuice® (Novagen) according to the manufacturer's instructions. In short, the CHO—S cells were grown in CD CHO medium supplemented with L-glutamine. Prior to transfection, the CHO—S cells were plated in 6-well plates, with approximately 5×10^5 cells per well, and grown overnight at 37° C. with 5% CO2. The medium was then removed and the CHO—S cells were washed 2 times with 1 mL serum-free medium. GeneJuice® was mixed with serum-free media followed by the addition of 2 μg mutant-HZ24 DNA. After incubating at room temperature for 5-15 minutes, the GeneJuice®/DNA mixture was added dropwise to an individual well containing the washed CHO—S cells. After 4 hours, the medium was replaced with 1 mL CD-CHO medium supplemented with L-glutamine and the cells were incubated for 72 hours at 37° C. with 5% CO2. Following expression, the media and cells were harvested separately.
# The mutant PH20-HZ24 plasmids generated in Example 1 were transiently […] into CHO—S cells using GeneJuice® (Novagen) according to the manufacturer's instructions. […]
# In this example, following transient expression, as described in Example 2 above, the media and cells were harvested separately and analyzed for PH20 expression and solublility by Western blot analysis. Solubility of the C-terminus truncation mutants was determined by examining whether the expressed protein was present in the growth media or in the cells. […] Cells expressing these mutants were treated with phosphoinositol-phospholipase C (PI-PLC), which cleaves the GPI-anchor allowing the release of soluble protein into the media, and the presence of PH20 in the resulting media and cells was determined by Western blot analysis.
# Non-reduced samples were run on a 4-20% Tris-Glycine gel and transferred to PVDF membrane using iBlot (Invitrogen). For the Western blot, rabbit anti-PH20 IgG (0.5 μg/mL) was used as the primary antibody and HRP-conjugated goat anti-rabbit IgG (0.1 ng/mL, Cat#DC03L, EMD) was used as the secondary antibody. Evidence of expression is determined by a band at approximately 66 kDa, corresponding to recombinant human PH20 hyaluronidase.
row,Molecule,Expressed in Media
1,B1,YES
2,B2,YES
3,B3,YES
4,B4,YES

# Test system: not listed separately
# Test: Microtiter hyaluronidase activity assay with biotinylated-hyaluronic acid
# Assay type: biochemical
# Settings: Table 6; 72 hour post transfection supernatant; pH 5.5
# Protocol: In Example 4, the hyaluronidase activity of truncated human PH20 hyaluronidase is determined using biotinylated hyaluronic acid. The free carboxyl groups on the glucuronic acid residues of hyaluronic acid are biotinylated, and the biotinylated hyaluronic acid substrate is covalently coupled to a microtiter plate. Following incubation with hyaluronidase, the residual biotinylated hyaluronic acid substrate is detected using an avidin-peroxidase reaction, and compared to that obtained following reaction with hyaluronidase standards of known activity. […] The sensitivity permits rapid measurement of hyaluronidase activity from cultured cells and biological samples with an inter-assay variation of less than 10%.
# In this example, the human PH20 hyaluronidase carboxy-terminus deletion mutants were tested for their PH20 hyaluronidase activity using a microtiter assay with biotinylated-hyaluronic acid (biotinylated-HA or bHA). The human PH20 hyaluronidase carboxy-terminus deletion mutants were tested for hyaluronidase activity at both pH 7.4 and pH 5.5.
# In short, a 4×BH 96-well plate was coated with biotinylated-HA (1.1 MDa). The 72 hour post transfection supernatant from cells transfected with human PH20 hyaluronidase carboxy-terminus deletion mutants was diluted in buffer at either pH 7.4 or pH 5.5 and added to individual wells of the plate and allowed to incubate at 37° C. for 90 minutes. The reaction was terminated by addition of 4M guanidine HCl. The wells were washed 4× with Phosphate Buffered Saline with Tween20 (PBST) to remove any digested biotinylated-HA followed by addition of streptavidin-HRP for 1 hour at room temperature. The wells were washed 4× with PBST and the plate was developed with TMB. The plate was read at 450 nm using an ELISA plate reader. Hyaluronidase activity (in Units/mL) was determined by interpolating the measured absorbance at 450 nm with a hyaluronidase reference standard curve. Full length mature human PH20 hyaluronidase and untransfected CHO cells were used as positive and negative controls.
row,pH 5.5 Activity [Units/ml],Molecule
1,0.468,B1
2,0.0135,B2
3,0.045,B3
4,0.00225,B4

# Same assay, conditions: Table 6; 72 hour post transfection supernatant; pH 7.4
row,pH 7.4 Activity [Units/ml],Molecule
1,0.441,B1
2,0,B2
3,0,B3
4,0,B4
